± gives the standard deviation of the averaged measurements.
Assay: total protein half-life in vivo (active degradation + dilution); higher = more stable protein
[1] = E. coli NCM3722 delta-clpP delta-lon delta-hslV, growth: N-lim chemostat, doubling time 6 h
[2] = E. coli NCM3722 delta-clpP, growth: N-lim chemostat, doubling time 6 h
[3] = E. coli NCM3722 delta-hslV, growth: N-lim chemostat, doubling time 6 h
[4] = E. coli NCM3722 delta-lon, growth: N-lim chemostat, doubling time 6 h
[5] = E. coli NCM3722 delta-smpB, growth: N-lim chemostat, doubling time 6 h
[6] = wild type E. coli NCM3722, growth: C-lim chemostat, doubling time 6 h
[7] = wild type E. coli NCM3722, growth: C-lim chemostat, doubling time 12 h
[8] = wild type E. coli NCM3722, growth: N-lim chemostat, doubling time 6 h
[9] = wild type E. coli NCM3722, growth: P-lim chemostat, doubling time 6 h
[10] = wild type E. coli NCM3722, growth: P-lim chemostat, doubling time 12 h
[11] = wild type E. coli NCM3722, growth: C-lim chemostat, doubling time 3 h
[12] = wild type E. coli NCM3722, growth: N-lim chemostat, doubling time 12 h

Sequence	total protein half-life in vivo [1]	total protein half-life in vivo [2]	total protein half-life in vivo [3]	total protein half-life in vivo [4]	total protein half-life in vivo [5]	total protein half-life in vivo [6]	total protein half-life in vivo [7]	total protein half-life in vivo [8]	total protein half-life in vivo [9]	total protein half-life in vivo [10]	total protein half-life in vivo [11]	total protein half-life in vivo [12]
MCGRFAQSQTREDYLALLAEDIERDIPYDPEPIGRYNVAPGTKVLLLSERDEHLHLDPVFWGYAPGWWDKPPLINARVETAATSRMFKPLWQHGRAICFADGWFEWKKEGDKKQPFFIYRADGQPIFMAAIGSTPFERGDEAEGFLIVTAAADQGLVDIHDRRPLVLSPEAAREWMRQEISGKEASEIAASGCVPANQFSWHPVSRAVGNVKNQGAELIQPV	4.83 ± 0.49 h	4.014 ± 0.026 h	4.54 h	4.55 ± 0.27 h	3.52 ± 0.22 h	5.39 ± 0.18 h	9.42 ± 0.51 h	3.45 ± 0.065 h	5.07 ± 0.74 h	9.67 ± 1.4 h	–	–
MCTTCGCGEGNLYIEGDEHNPHSAFRSAPFAPAARPKMKITGIKAPEFTPSQTEEGDLHYGHGEAGTHAPGMSQRRMLEVEIDVLDKNNRLAERNRARFAARKQLVLNLVSSPGSGKTTLLTETLMRLKDSVPCAVIEGDQQTVNDAARIRATGTPAIQVNTGKGCHLDAQMIADAAPRLPLDDNGILFIENVGNLVCPASFDLGEKHKVAVLSVTEGEDKPLKYPHMFAAASLMLLNKVDLLPYLNFDVEKCIACAREVNPEIEIILISATSGEGMDQWLNWLETQRCA [P0AAN3]	4.03 ± 0.57 h	3.15 h	2.72 ± 0.035 h	3.48 ± 0.13 h	3.079 ± 0.0096 h	4.19 ± 0.074 h	6.66 ± 0.1 h	3.14 ± 0.63 h	3.69 ± 0.052 h	7.22 ± 0.56 h	2.29 ± 0.11 h	3.83 ± 0.63 h
MDALELLINRRSASRLAEPAPTGEQLQNILRAGMRAPDHKSMQPWHFFVIEGEGRERFSAVLEQGAIAAGSDDKAIDKARNAPFRAPLIITVVAKCEENHKVPRWEQEMSAGCAVMAMQMAAVAQGFGGIWRSGALTESPVVREAFGCREQDKIVGFLYLGTPQLKASTSINVPDPTPFVTYF [P0ACY1]	5.15 ± 0.18 h	5.29 ± 0.85 h	4.55 ± 0.042 h	4.85 ± 0.25 h	4.85 ± 0.27 h	5.49 ± 0.1 h	9.81 ± 4.2 h	4.7 ± 0.14 h	5.6 ± 0.17 h	11.6 ± 1.3 h	2.91 ± 0.03 h	7.1 ± 0.14 h
MDALSRLLMLNAPQGTIDKNCVLGSDWQLPHGAGELSVIRWHALTQGAAKLEMPTGEIFTLRPGNVVLLPQNSAHRLSHVDNESTCIVCGTLRLQHSARYFLTSLPETLFLAPVNHSVEYNWLREAIPFLQQESRSAMPGVDALCSQICATFFTLAVREWIAQVNTEKNILSLLLHPRLGAVIQQMLEMPGHAWTVESLASIAHMSRASFAQLFRDVSGTTPLAVLTKLRLQIAAQMFSRETLPVVVIAESVGYASESSFHKAFVREFGCTPGEYRERVRQLAP	–	–	6.33 h	6.04 h	5.156 ± 0.014 h	5.12 ± 3.4 h	11.8 ± 2.5 h	5.92 ± 0.51 h	5.4 ± 0.16 h	12.4 ± 1.3 h	–	–
MDAMKYNDLRDFLTLLEQQGELKRITLPVDPHLEITEIADRTLRAGGPALLFENPKGYSMPVLCNLFGTPKRVAMGMGQEDVSALREVGKLLAFLKEPEPPKGFRDLFDKLPQFKQVLNMPTKRLRGAPCQQKIVSGDDVDLNRIPIMTCWPEDAAPLITWGLTVTRGPHKERQNLGIYRQQLIGKNKLIMRWLSHRGGALDYQEWCAAHPGERFPVSVALGADPATILGAVTPVPDTLSEYAFAGLLRGTKTEVVKCISNDLEVPASAEIVLEGYIEQGETAPEGPYGDHTGYYNEVDSFPVFTVTHITQREDAIYHSTYTGRPPDEPAVLGVALNEVFVPILQKQFPEIVDFYLPPEGCSYRLAVVTIKKQYAGHAKRVMMGVWSFLRQFMYTKFVIVCDDDVNARDWNDVIWAITTRMDPARDTVLVENTPIDYLDFASPVSGLGSKMGLDATNKWPGETQREWGRPIKKDPDVVAHIDAIWDELAIFNNGKSA [P0AAB4]	6.47 ± 0.5 h	6.032 ± 0.049 h	6.88 ± 0.78 h	6.27 ± 0.71 h	6.38 ± 0.54 h	6.29 ± 0.21 h	11.3 ± 0.45 h	5.82 ± 0.23 h	5.99 ± 0.093 h	12.5 ± 0.62 h	2.98 ± 0.37 h	11.4 ± 0.32 h
MDDLTAQALKDFTARYCDAWHEEHKSWPLSEELYGVPSPCIISTTEDAVYWQPQPFTGEQNVNAVERAFDIVIQPTIHTFYTTQFAGDMHAQFGDIKLTLLQTWSEDDFRRVQENLIGHLVTQKRLKLPPTLFIATLEEELEVISVCNLSGEVCKETLGTRKRTHLASNLAEFLNQLKPLL [P0A8U0]	4.63 ± 0.19 h	–	3.71 ± 0.25 h	5.62 ± 1.2 h	4.15 ± 0.19 h	4.21 ± 1.8 h	9.71 h	3.72 h	5.7 ± 0.28 h	12.7 ± 2.7 h	> 4 h	7.43 ± 1.4 h
